# Experiment: soluble on expression in E. coli; label from the status in PepcDB or PDB records
row,Sequence,soluble on expression in E. coli
1,MSLKLFGTDGVRGKAGEFLDSFLAMRLAMAAGIYFKDKSITNNILVGKDTRRSGYMIENAIVSGLTSIGYNVIQIGPMPTPAIAFLTEDMRCDAGIMISASHNPYYDNGIKFFDAHGNKLSEDIEKKIEEIYFDDKLIQASKVDMEKIGQAKRIDDVIGRYIVSIKNSFPKDLTLKSLRVVLDVAHGAAYKVAPTVFKELGAEVIVMSDKPNGLNINENCGALHPANLAAEVKRLRADVGFAFDGDADRLVVVDEKGEVANGDSLLGVLALYLKEQGKLQSSVVATIMSNGALKEFLNKHGIELDTCNVGDKYVLEKLKANGGNFGGEQSGHIIFSDYAKTGDGLIAALQFSALMLSKKKSASSILGQVKPYPQLLTNLKIAEKKDLDKIKGLKELKKDLENKNINTLFRYSGTENLIRLLLEARDIKLLEKEMKNVVEFFKKALNGEGHHHHHH,not soluble
2,MAGHSMREHEVYSKLRAPPSSRMILRLDGRGFHRLTESLDFDRPYDEAFRDLMIRTCLDLMEEFSPSLIYTFSDEINVLLDSVPFAGRVEKLDSVFSGFASSSFTRGALEAGFSPVKPVSFDCRVIPISSDIVPEYFRSRQDESWRNCLNSYAYWTLRREVGARRAAERLRGLKSDSLHDLLFERGVNISRVPAWQRRGVGVYRVPHRVRGYNPIRDEEVSAVRMRVKVDLELPLFTDEFFEGLMRLEHHHHHH,not soluble
3,MGSDKIHHHHHHCVRVPTLMIVPEAAQSGVAETVFVASNRVFANGQFQSARQDDVTYTRFTVQIPQDRDAGAVRPGRARRTGPNLRTDFVASDGVHLGGEGRFQSELLAEARRRGTSEVMVFIHGFASSIGTGIYRTAQIRYDFEVPGVAVHYAWPSSGSYIGYAYDRDSALFARDGLEELITGIMQTDLDVVLVAHSLGSSVVMEVLRQLRIAGRNALIDRIHGVILFSPDLDVDVFRSQASRIGDLPQPFVIFTSQRDQALTFSSIMAGRTARVGNLATADQVAEFDVTLIDVSAFEGGVRDRLNHFAGATSQSAVQILRDAAQINSAFEDGPDARPGLLPGTILTIQNATLVLLDPEHAR,not soluble
4,EVKLQESGAGLVQPSQSLSLTCSVTGYSITSGYYWNWIRLFPGNKLEWVGYISNVGDNNYNPSLKDRLSITRDTSKNQFFLKLNSVTTEDTATYYCARSEYYSVTGYAMDYWGQGTTVTVSSAWRHP,soluble
5,MVRIRRAGLEDLPGVARVLVDTWRATYRGVVPEAFLEGLSYEGQAERWAQRLKTPTWPGRLFVAESESGEVVGFAAFGPDRASGFPGYTAELWAIYVLPTWQRKGLGRALFHEGARLLQAEGYGRMLVWVLKENPKGRGFYEHLGGVLLGEREIELGGAKLWEVAYGFDLGGHKW,soluble
6,MSLMEDVGKEMSKIIQKRDINERYEELVNEVLKDQDVQAFIQANRERLTDEDIRKSYAKLYEFVQEKKKFQVNDPAMIAPGYEPRLMLNFHYIDVTYVPTADLIARQKEEEIRNRVRAMDMPKDVREANLRDFDPSSQGRAKALAEAMQFLREYPATPKEFHKGLYLQGPFGVGKSFLLGAMANALAERGFTTTIVHFPTFTVEMKQAIGRDQVGEKLDAVKKSPILMIDDIGAESMTSWIRDDVLSVILQYRMQEQLVTFFSSNLDLKALEEHLTVTQRGEQEPLKARRIMERVRYLSKEITMTGNDRRNGEGHHHHHH,soluble
7,MSLADYLTVTHLTKYLKLKFDRDPYLERVYLTGQVSNFRKRPTHQYFSLKDESAVIQATMWAGVYKKLGFDLEEGMKINVIGRVQLYEPSGSYSIVIEKAEPDGIGALALQFEQLKKKLTAEGYFEQKHKQPLPQFVSKIGVITSPSGAVIRDIITTVSRRFPGVEILLFPTKVQGDGAAQEVVANIRRANQREDLDLLIVGRGGGSIEDLWAFNEEIVVQAIFESQLPVISSVGHETDTTLADFVADRRAATPTAAAELATPITKTDLMSWIVERQNRSYQACLRRIKQRQEWVDKLSQSVIFRQPERLYDAYLQKIDRLSMTLMNTMKDRLSSAKENKVQLDHALANSQLQTKIERYQDRVATAKRLLMANMASQYDSQLARFEKAQDALLSLDASRIIARGYAMIEKNQALVASVSQITKGDQLTIKMRDGQLDVEVKDVKNENIEGHHHHHH,not soluble
8,AHHHHHHGSKARIIYRASFDAAHAVKIEEWEELHGHTFSLEVVVEGEIKKGYVMDFLKLKKVVDGVVKELDHRNLNKIMDNPTTENIALWISERIRKNLPGDVKLKRLSLWEGNEFGVELEW,soluble
9,STQACPQPKTLDEFTIIQNLQPQYQFRDYFIATCKQGYQLIEGNQVLHSFTAVCQDDGTWHRAMPRCKIKDCGQPRNLPNGDFRYTTTMGVNTYKARIQYYCHEPYYKMQTRAGSRESEQGVYTCTAQGIWKNEQKGEKIPRCLPVCGKPVNPVEQRQR,soluble
10,MYTLIIPAAGQGKRMGAGKNKLFLLINEVPIIVHTLRAFEKDKACKNIIMAINEEERPYFEELMQKYPVEKPVQFIQGGAERQDSVYNAIQHTTDVEYVLVHDGARPFVTNKVIQDVLTAAEKYGASICAVPVKDTVKKVEQGVVVETVERSQLKAVQTPQGFSVSLLLEAHRSAKQSCFLGTDDASLVERIGKQVGVVEGSYYNIKVTTPEDLLIAESFLHVQKK,not soluble
11,MRSATDLLDELNAVDESARIEAKRASDMGKSVMETVIAFANEPGLDGGYLLLGVDWAINDKGDTVYRPVGLPDPDKVQRDLASQCASMLNVALRPEMQLEQVGGKTLLVVYVPEADVTHKPIYKKATGLPGGAYRRIGSSDQRCVDEDLWVLRGESQPLHGPDSSILSDARADDFDPTAIAAYRRERARINPQAEELDYGDEDMLEALGALRRVDGVLQPTLAGIVLFGKPLALRRLLPMVRIDYIRVPGNEWVEDPENRFQSIDIRKPLMLALPLAEASIIDELPKGFRLPEGQLQSVQEPILPRKVIREALANAAMHRNYTLHSPTQIIRYSNRIEIRNVGYSLKEPAQLGLPGSRLRNPAIAAVLHDLHLAEAKGTGIRAMRRLAADAGLPLPEFHSDRQANEFKLTLFLHNLLTEEDHTWLRNYAGSTLGPDEAKVLIYVRATGAVDNTACRDFCGSDTLAASMVLRRLRDRGLLEKRGAGSRTYYTLAGNEPRPTLESAQSELPLDVPADTPPVGQPQPAEAVAGQQACNPQLATLPPELATLLATLQGRISSEALRDGIRRLCQWAPQSGDQLATLLGKDRDYLRNKHLIPMVRDGQLRFRYPESAKHPHQAYVAPEDKRNDLEHHHHHH,soluble
12,QNNKDEKKITKIGVLQFVSHPSLDLIYKGIQDGLAEEGYKDDQVKIDFMNSEGDQSKVATMSKQLVANGNDLVVGIATPAAQGLASATKDLPVIMAAITDPIGANLVKDLKKPGGNVTGVSDHNPAQQQVELIKALTPNVKTIGALYSSSEDNSKTQVEEFKAYAEKAGLTVETFAVPSTNEIASTVTVMTSKVDAIWVPIDNTIASGFPTVVSSNQSSKKPIYPSATAMVEVGGLASVVIDQHDLGVATGKMIVQVLKGAKPADTPVNVFSTGKSVINKKIAQELGITIPESVLKEAGQVI,not soluble
13,MGSDKIHHHHHHMDYELLKTFICLAKLKNFTKTAEQLHVVQSTITSRIKHLEHTIGETLFIRTNKKVLLTGAGEIFLPYAKQLLSIQETAISRLHTLELFKDTLNIGAVHSIYDCHVQNMILKYMQRNKKIAIKITIEHSEELIQMLHDNQLDVTFTYLDIKSSQFICNPFYTDKIILVTGSQNNYNERGITNDELRSLPLLSSAILTEEFQEWFYSIFPRNYIYPLDININSNIVTFLKDGIGFSFMPESAAKNFIEEGSLIEVKLLESTPPSMKSYVLLNKQRINSEAVHSWLNEFPTLTST,not soluble
14,MLDSVTHSTFLPNASFCDPLMPWTDLFSNEDYYPAFEHQTACDSYWTSVHPEYWTKRHVWEWLQFCCDQYKLDANCISFCHFNISGLQLCSMTQEEFIEAAGICGEYLYFILQNIRSQGYSFFNDAEETKTGIKDYADSSCLKTSGIKSQDCHSRTSLQSSHLWEFVRDLLLSPEENCGILEWEDREQGIFRVVKSEALAKMWGQRKKNDRMTYEKLSRALRYYYKTGILERVDRRLVYKFGKNAHGWQEEKL,soluble
15,MGSDKIHHHHHHMRVIELEDLDHIREAIVILKGLEVEGANKPGEKLGFKKGKNLMSIFTCKEMDRFIRDVQERKNFSLETNAYFFELHSKRFVSLRYLPKKSLLFVNDLTEERTLSEAKLDFVTAVSHELFTPLSASKANVFLLKDIENDPEKLEILGKVERSLDRMETIIRQLKVLTMIQLRLYELKMEHIPVEEVVHMVLEELREKIESKKIKVNVFVDVETIETDRFVFHTILKNLVSNAVKYSYPDSVVEISITGERLSVKDQGIGIKEEEKSRIFERFYRGSEALKMAPGSGLGLSIVKHLCDTIGYRLEVNSQWLVGSEFIVHFK,not soluble

# Source: the DeepSol protein solubility set
